From article PMC12676389

Columns and labels:
[1] = molecular target: β2-adrenergic receptor, construct PN1 (monomeric receptor) (UniProt P07550); assay: BLI; FLAG-tagged β2AR (monomer or AP-bound dimer) captured with 10 μM Iso on SA tips by biotinylated anti-FLAG M1 Fab; Gs 30 nM to 10 μM with 10 μM GDP and 0.1% BSA in NH buffer, 0.01% LMNG, 0.001% CHS; 30°C; KD from equilibrium responses
[2] = molecular target: AP-7-168-bound β2AR dimer (construct PN1) (UniProt P07550); assay: SEC; AP-bound dimer with nucleotide-free Gs; peak fractions on SDS-PAGE, ratio of β2AR to Gα estimated on gels
[3] = molecular target: β2-adrenergic receptor, construct PN1 (monomeric receptor) (UniProt P07550); assay: BLI; as a16, monomeric β2AR with 10 μM AP

Substance: heterotrimeric Gs (Gαsβ1γ2) (from UniProt P63092 1-394; P62873 1-340; P59768 1-71) (complex)
- Kd [1]: 960 nM
- stoichiometry N [2]: 2 β2AR per Gα
- Kd [3]: 1700 nM
